Here are results for nine molecules from patent US12583915 (MEDPACTO, dated 2026).

The target of experiment [1] is T1, Myc-tag BAG2 (Homo sapiens (Human), UniProt O95816 1-211, limits assumed).
T1 construct: Expressed in MDA-MB-231 cells; 30 ug of lysate tested in the sandwich ELISA against cells with the Myc-tag empty vector (EV); not tied to this vector in so many words; also called BAG2 overexpressed from the Myc-tag BAG2 expression vector; OE; not shown: Myc tag
Kind of experiment: sandwich ELISA on lysate of MDA-MB-231 cells overexpressing Myc-tag BAG2 (OE) against empty vector cells (EV). (In general: An ELISA detects its analyte on a solid surface through an enzyme-linked reagent.)

In experiment [2] the target is T2, GST-Bag Full (GST fusion of full-length human BAG2) (human, UniProt O95816 1-211).
T2 construct: Expressed in HEK293T cells, tested in cell lysate by immunoblot; band at about 50 kDa; also called GST-Bag Full vector product; full-length BAG2 polypeptide; not shown: GST tag from the pcDNA3.1+/GST vector, about 26 kDa
The experiment in a line: immunoblot on lysate of HEK293T cells transfected with GST-Bag Full vector. The text has this:
Next, for domain mapping of the BAG2 antigen to which the ten antibodies identified in Section 1 above, cells, to which the GST-Empty vector (pcDNA3.1+/GST vector, NovoPro Bioscience Inc. China) having a molecular weight of about 26 kDa was introduced, was used as a negative control. GST-Bag Full vector, GST-Bag F1 vector, GST-Bag F2 vector, GST-Bag F3 vector, and GST-Bag F4 vector, each including polynucleotides encoding human BAG2 protein and polynucleotides encoding fragments of the BAG2 protein, were introduced into cells, and the cells with the vectors introduced thereinto were cultured to express the genes, and then, cell lysates were obtained. For cell lysates, immunoblotting was performed using each of the 10 antibodies. The polynucleotide encoding the human BAG2 protein has the nucleotide sequence of SEQ ID NO: 70. The GST-Bag F1, -Bag F2, -Bag F3, and -Bag F4 vectors consist of the nucleotide sequences of SEQ ID NOS: 71 to 74, respectively.
FIGS. 2A and 2B show the results of immunoblotting for the full-length BAG2 polypeptide of anti-BAG2 antibody or a fragment thereof. […] In detail, the immunoblotting was performed as follows: each of the vectors was introduced into HEK293T cells by lipofectamine transfection (Thermo Fisher Scientific, Inc., Waltham, MA, USA) method, and the obtained transformed cells were cultured at a temperature of 37° C. in DMEM (Welgene) medium containing 10% FBS, 100 U/ml penicillin and 100 µg/ml streptomycin for 30 hours, and then cells were isolated. The isolated cells were disrupted using the same method as described in connection with FIG. 1 and subjected to […] analysis on a 12% gel. For immunoblotting, after reacting for 1 hour with the same blocking solution as described in connection with FIG. 1, each of the 10 purified anti-BAG2 antibodies having a concentration of 2 mg/ml was used as a primary antibody at a dilution of 1/10000 dilution and bound to the cells. The goat anti-mouse HRP conjugate used as the secondary antibody was used at a 1/5000 dilution concentration, and Film-photosensing was carried out in the dark using EGL reagent (Amersham Pharmacia Biotech) as a substrate. Standard molecular marker sizes were expressed to confirm the size of BAG2.
Background: In western blotting, separated proteins are transferred to a membrane and probed.

For experiment [3], the target named is T3, human BAG2 protein (human, UniProt O95816 2-211).
T3 construct: also called BAG2 polypeptide; Bcl-2-associated athanogene 2
Kind of experiment: Western blot on MDA-MB-231 cell lysate.

For experiment [4], the target named is T3, human BAG2 protein. The experiment in a line: selection of hybridoma clones by immunoblotting.

T3 sequence (O95816 2-211 limits assumed): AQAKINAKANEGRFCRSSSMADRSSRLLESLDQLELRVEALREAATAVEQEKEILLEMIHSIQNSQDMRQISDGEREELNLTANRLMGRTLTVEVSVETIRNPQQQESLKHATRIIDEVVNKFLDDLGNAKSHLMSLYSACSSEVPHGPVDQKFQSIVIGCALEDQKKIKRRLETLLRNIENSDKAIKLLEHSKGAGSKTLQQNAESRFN
T1 sequence (O95816 whole entry): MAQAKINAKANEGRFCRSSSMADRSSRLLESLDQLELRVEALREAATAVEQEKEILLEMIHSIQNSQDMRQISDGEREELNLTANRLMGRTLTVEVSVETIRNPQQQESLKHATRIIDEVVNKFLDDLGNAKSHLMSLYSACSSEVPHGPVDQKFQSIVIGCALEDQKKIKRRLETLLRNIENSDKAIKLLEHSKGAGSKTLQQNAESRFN
T2 sequence (O95816 whole entry, the tested form may be a part): as the sequence (O95816 whole entry) above

B1: 9B12 antibody (antibody, V domains shown)
VH: QVQLQQSGAELVRPGTSVKVSCKASGYAFTNYMIEWIKQRPGQGLEWIGVINPGSGGSYYNEKVKGKATLTADRSSSTAYMQFSSLTADDSGVYFCRIYGNYKGYFDHWGQGTTLTVSS
VL: DIVMTQSPSSMYASLGERVTITCKASQDMNSYLSWFQQKPGKSPKTLIYRANRLVDGVPSRFSGSGSGQDYSLTISSLEYEDMGIYYCLQNDEFPFTFGSGTKLEMK
notes: Mouse monoclonal antibody from a hybridoma; Capture antibody in the sandwich ELISA; also called anti-BAG2 antibody 9B12
For the molecule B1, the binding result in experiment [1], in experiment [2] and in experiment [3] was “binds” throughout.

B2: 9B3 antibody (antibody, V domains shown)
VH: EVQLQQSGAELVRPGTSVKVSCKASGYAFTNYMIEWIKQRPGQGLEWIGVINPGSGGSYYNEKVKGKATLTADKSSSTAYMQFSSLTADDSAVYFCRIYGNYKGYFDYWGQGTTLTVSS
VL: DIVMTQSPSSMYASLGERVTITCKASQDINSYLSWFQQKPGKSPKTLIYRANRLVDGVPSRFSGSGSGQDYSLTISSLEYEDMGIYYCLQNDEFPFTFGSGTKLEIK
notes: Mouse monoclonal antibody from a hybridoma; also called anti-BAG2 antibody 9B3
On to B2, for which the binding result in experiment [2] and in experiment [3] was “binds” in each case.

B3: 3B10 antibody (antibody, V domains shown)
VH: QVQLQQPGAELARPGTSVKVSCKASGHAFTNYMIEWIKQRPGQGLEWIGVINPGSGGTYYSEKVKGKATLTADRSSSTAYMQLSSLTADDSGVYFCRIYGNYKGYFDHWGQGTTLTVSS
VL: DIVMTQSPSSMYASLGERVTITCKASQDMNSYLSWFQQKPGKSPKTLIYRSNRLVDGVPSRFSGSGSGQDYSLTISSLDYEDMGIYYCLQNDEFPFTFGSGTKLEIK
notes: Mouse monoclonal antibody from a hybridoma; also called anti-BAG2 antibody 3B10
As to B3, the binding result in experiment [2] and in experiment [3] was “binds” in each case.

B4: 2A11 antibody (antibody, V domains shown)
VH: QVQLQQPGAELVRPGASVTLSCKASGYTFTDYEMHWVKQTPVHGLEWIGIIDPETGGTAYNQKFKGKATLTADKSSSTAYMELRSLTSEDSAVYYCTRGKFYYSGRDYAMDYWGQGTSVTVSS
VL: DVLMTQTPLSLPVSLGDQASISCRSSQSIVHSNGNTYLEWYLQKPGQSPKLLIYKVSNRFSGVPDRFSGSGSGTDFTLKISRVEAEDLGVYFCFQGSQVPPTFGGGTKLEIK
notes: Mouse monoclonal antibody from a hybridoma; Capture antibody in the sandwich ELISA; also called anti-BAG2 antibody 2A11
B4: the binding result in experiment [1], in experiment [2] and in experiment [4] was “binds” throughout.

B5: 3B5 antibody (antibody, V domains shown)
VH: EVQLQQSGPELVKPGASVKLSCKASGYSFTDYTFYWVRQSHGESLEWIGYIDPYNGGNTYNRKFKGKATLTVDKSSSTAFMHLNSLTSEDSAVYYCARGYYRYGGGGDFDYWGQGTTLTVSS
VL: DVLMTQTPLSLPVSLGDQASISCRSSQSLVHSNGNTYLHWYLQKPGQSPKLLIHKVSNRFSGVPDRFSGSGSGTDFTLKISRVEAEDLGIYFCSQNTHIPPTFAGGTKLEIK
notes: Mouse monoclonal antibody from a hybridoma; also called anti-BAG2 antibody 3B5
As to B5, the binding result in experiment [2] and in experiment [3] was “binds” in each case.

B6: 4C2 antibody (antibody, V domains shown)
VH: QVQLQQPGAELVRPGASVTLSCKASGYTFTDYEMHWVKQTPVHGLEWIGIIDPETGATAYNQKFKGKATLTADKSSSTAYMELRSLTSEDSAVYYCTRGKFYYSGRDYAMDYWGQGTSVTVSS
VL: DVLMTQTPLSLPVSLGDQASISCRSSQSIVHSNGNTYLEWYLQKPGQSPKLLFYKVSNRFSGVPDRFSGSGSGTDFTLKISRVEAEDLGVYFCFQGSQVPPTFGGGTKLEIK
notes: Mouse monoclonal antibody from a hybridoma; also called anti-BAG2 antibody 4C2
As to B6, the binding result in experiment [2] and in experiment [3] was “binds” each time.

B7: 8C4 antibody (antibody, V domains shown)
VH: QVQLQQPGAELVRPGASVTLSCKASGYTFTDYEMHWVKQTPVHGLEWIGIIDPETAGTAYNQKFKGKATLTADKSSSTAYMELRSLTSEDSAVYYCTRGKFYYSGRDYAMDYWGQGTSVTVSS
VL: DVLMTQTPLSLPVSLGDQASISCRSSQSIVHSNGNTYLEWYLQKPGQSPKLLFYKVSNRFSGVPDRFSGSGSGTDFTLKISRVEAEDLGVYFCFQGSQVPPTFGGGTKLEIK
notes: Mouse monoclonal antibody from a hybridoma; also called 8G4 (as misprinted); anti-BAG2 antibody 8C4
Take B7: the binding result in experiment [1], in experiment [2] and in experiment [3] was “binds” throughout.

B8: 3F12 antibody (antibody, V domains shown)
VH: QVQLQESGPDLVKPSQSLSLTCTVTGYSITSGYSWHWIRQFPGNKLEWMGYIYYRGSTNYNPSLKSRISITRDTSKNQFFLLLKSVTTEDTATYYCAREAYWGQGTLVTVSA
VL: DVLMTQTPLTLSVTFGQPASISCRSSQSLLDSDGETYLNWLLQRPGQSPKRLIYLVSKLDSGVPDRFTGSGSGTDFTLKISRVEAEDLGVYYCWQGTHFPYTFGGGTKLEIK
notes: Mouse monoclonal antibody from a hybridoma; also called anti-BAG2 antibody 3F12
Turning to B8, the binding result in experiment [1], in experiment [2] and in experiment [4] was “binds” in each case.

B9: 3G8 antibody (antibody, V domains shown)
VH: QIQLVQSGPELKKPGETVKISCKASGYSFTKYGMNWVKQAPGKDIKWMGWINTNTGEATYGEEVKGRFAFSLETSASTAYLQINNLKNEDTATYFCARLGLRYLDYWGQGTTLTVSS
VL: DIVMTQSPASLVVSLGQRATISCRASKSVSTSDYSYMHWYQQKPGQPPKVLIYLASNLESGVPARFSGSGSGTDFTLNIHPVEEEDAATYYCQHNRELPPTFGAGTKLELK
notes: Mouse monoclonal antibody from a hybridoma; also called 3 GB (as misprinted); anti-BAG2 antibody 3G8
For B9, the binding result in experiment [1], in experiment [2] and in experiment [3] was “binds” each time.
